Laboratory results taken from patent US20230405140A1 (MCSAF INSIDE ONCOLOGY, published 2023).

What was measured:
CD56 [1] = target: T1, CD56 (UniProt P13591 20-858, limits assumed); experiment: cell-based or functional assay
CD56 [2] = target: T1, CD56; experiment: cell-based or functional assay; remark: listed apart in the source
CD56 [3] = target: T1, CD56; experiment: cell-based or functional assay; remark: listed apart in the source
HER2 = target: T2, HER2 (UniProt P04626 23-1255, limits assumed); experiment: immunocytochemistry with peroxidase secondary antibody, SKBR3 cells (HER2-positive, no CD56); '-' = absence of fixation
T2 construct: whole, on cells; SK-BR-3 (SKBR3) cells, CD56-negative control line

B1: MF-m906-MMAE (antibody, human IgG1, kappa)
heavy: not shown
light: DVVMTQSPLSLPVTPGEPASISCRSSQSLLHSNGYNFLDWYLQKPGQSPQLLIYLGSNRASGVPDRFSGSGSGTDFTLKISRVEADDVGVYYCMQSLQTPWTFGHGTKVEIKRTVAAPSVFIFPPSDEQLKSGTASVVCLLNNFYPREAKVQWKVDNALQSGNSQESVTEQDSKDSTYSLSSTLTLSKADYEKHKVYACEVTHQGLSSPVTKSFNRGEC
modifications: MMAE linker-drug (pyridine-caproic-ValCit-PABc-MMAE, compound 8) grafted on interchain cysteines; mean DAR 3.89
- IC50, XTT cytotoxicity test, H69 small cell lung carcinoma line (CD56 [1]): 1 to 2 nM

B2: MIO-003 (antibody, human IgG1, kappa, N297A)
heavy: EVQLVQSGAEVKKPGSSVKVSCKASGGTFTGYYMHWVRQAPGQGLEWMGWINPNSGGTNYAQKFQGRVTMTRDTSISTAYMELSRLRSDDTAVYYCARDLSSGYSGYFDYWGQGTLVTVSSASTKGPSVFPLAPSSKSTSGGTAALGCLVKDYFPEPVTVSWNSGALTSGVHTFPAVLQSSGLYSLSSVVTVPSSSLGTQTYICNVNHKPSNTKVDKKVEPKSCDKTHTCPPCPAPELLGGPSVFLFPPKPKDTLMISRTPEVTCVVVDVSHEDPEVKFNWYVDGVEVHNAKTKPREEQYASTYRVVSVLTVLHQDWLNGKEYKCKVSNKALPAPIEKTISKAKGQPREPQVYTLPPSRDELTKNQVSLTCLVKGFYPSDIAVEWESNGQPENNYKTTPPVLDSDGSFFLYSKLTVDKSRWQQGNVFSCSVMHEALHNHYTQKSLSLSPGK
light: DVVMTQSPLSLPVTPGEPASISCRSSQSLLHSNGYNFLDWYLQKPGQSPQLLIYLGSNRASGVPDRFSGSGSGTDFTLKISRVEADDVGVYYCMQSLQTPWTFGHGTKVEIKRTVAAPSVFIFPPSDEQLKSGTASVVCLLNNFYPREAKVQWKVDNALQSGNSQESVTEQDSKDSTYSLSSTLTLSKADYEKHKVYACEVTHQGLSSPVTKSFNRGEC
modifications: MMAE linker-drug (pyridine-caproic-ValCit-PABc-MMAE) as in MIO-001; attachment residues not itemised
- IC50 (pM), XTT assay, H69 n = 3 (CD56 [2]): 1950 pM
- IC50 (pM), XTT assay, H209 n = 3 (CD56 [2]): 22100 pM
- IC50 (pM), XTT assay, PeTa n = 3 (CD56 [3]): 14900 pM
- IC50 (pM), XTT assay, WaGa n = 3 (CD56 [3]): 10300 pM

B3: m906 (antibody, human IgG1, kappa)
heavy: not shown
light: DVVMTQSPLSLPVTPGEPASISCRSSQSLLHSNGYNFLDWYLQKPGQSPQLLIYLGSNRASGVPDRFSGSGSGTDFTLKISRVEADDVGVYYCMQSLQTPWTFGHGTKVEIKRTVAAPSVFIFPPSDEQLKSGTASVVCLLNNFYPREAKVQWKVDNALQSGNSQESVTEQDSKDSTYSLSSTLTLSKADYEKHKVYACEVTHQGLSSPVTKSFNRGEC
notes: also called mAb-001; anti-CD56 antibody m906
- binding result (HER2): no binding (tested: 650 ng/mL)
